According to the DeepSol protein solubility set:

Assay: soluble on expression in E. coli; label from the status in PepcDB or PDB records

Row | Sequence | soluble on expression in E. coli
1 | MSNSYEGCGDLTIFVAVALNKVIGHKNQIPWPHITHDFRFLRNGTTYIPPEVLSKNPDIQNVVIFGRKTYESIPKASLPLKNRINVILSRTVKEVPGCLVYEDLSTAIRDLRANVPHNKIFILGGSFLYKEVLDNGLCDKIYLTRLNKEYPGDTYFPDIPDTFEITAISPTFSTDFVSYDFVIYERKDCKTVFPDPPFDQLLMTGTDISVPKPKYVACPGVRIRNHEEFQYLDILADVLSHGVLKPNRTGTDAYSKFGYQMRFDLSRSFPLLTTKKVALRSIIEELLWFIKGSTNGNDLLAKNVRIWELNGRRDFLDKNGFTDREEHDLGPIYGFQWRHFGAEYLDMHADYTGKGIDQLAEIINRIKTNPNDRRLIVCSWNVSDLKKMALPPCHCFFQFYVSDNKLSCMMHQRSCDLGLGVPFNIASYSILTAMVAQVCGLGLGEFVHNLADAHIYVDHVDAVTTQIARIPHPFPRLRLNPDIRNIEDFTIDDIVVEDYVSHPPIPMAMSA | soluble
2 | MTQFTTELLNFLAQKQDIDEFFRSSLETAMNDLLQVELSAFLGYEPYDKAGYNTGNSRNGAYTRRFETKYGVVNLLIPRDRNGEFSPALIPSYGRRDNHLEEMVIKLYRTGVTTREISDIIERMYGHHYSPATVSNISKATQENVASFHERSLEANYTVLYLDGTYLPLRRGTVSKECIHIALGVTSYGHKAILGYDIAPNENNASWSDLLERFKGQGVQQVSLVVSDGFNGLDQLIQQAFPMAKQQRCLVHIGRNIASKVKRADRALILEQFKTIYRAINVEEAKQALDSFINEWKPHYKKVIETLESIENLLIFYEFPHQIWGSIYSTNLIESLNKEIKRQTKKKVVFPNEESLERYLVTLFSDYNFKQGQRIHKGFGQCTDTLESLFD | not soluble
3 | MFYFRNLDGYTFFSFMKQKPRRNLFIGVPPLEGTCTKEVVHEAIKEILFYSYC | not soluble
4 | MRPEHLSLQLLAWIYLINGNPIVQKGGLEVLDITDSNDLSVRQRFEEVIRLDCASQRRKALKRKTDGDARIYIPTCSPKNSLLYDKVQCYDVSIYCWCVDELSGEPKLGSSTTRGKPKCEETPTTTVAPKRVRRNNRCKEKKRTRFLRRLVSTLKSEMIMSGINATKVSRDSAIRWKFNQLNINHNNVLERSEWKPFKSVLLEWKNVRQCSRNLFKTCDLNKDRKLTFDEWRKCIVQEINRVPAKRPDQLNPFLYILRSE | soluble
5 | MSKPIEIEIRRAPVLGSSMAYRETGAQDAPVVLFLHGNPTSSHIWRNILPLVSPVAHCIAPDLIGFGQSGKPDIAYRFFDHVRYLDAFIEQRGVTSAYLVAQDWGTALAFHLAARRPDFVRGLAFMEFIRPMPTWQDFHHTEVAEEQDHAEAARAVFRKFRTPGEGEAMILEANAFVERVLPGGIVRKLGDEEMAPYRTPFPTPESRRPVLAFPRELPIAGEPADVYEALQSAHAALAASSYPKLLFTGEPGALVSPEFAERFAASLTRCALIRLGAGLHYLQEDHADAIGRSVAGWIAGIEAVRPQLAAVD | soluble
6 | MGMAAESQFHVLAVDDSLFDRKLIERLLQKSSCQVTTVDSGSKALEFLGLRQSTDSNDPNAFSKAPVNHQVVEVNLIITDYCMPGMTGYDLLKKVKESSAFRDIPVVIMSSENVPARISRCLEEGAEEFFLKPVRLADLNKLKPHMMKTKLKNQKLEEIETTSKVENGVPTAVADPEIKDSTNIEIEILPLQQDLLLVQQEEQTLSINNKRKSVEEGISTDRARPRFDGIATAV | not soluble
7 | MGSDKIHHHHHHMVVNLTYMLNTEDRKFIIDSVKKGYKVTELARMFNVTPRRIQQILHESEMPESAKDSELTDEEKKFIDDLWDRYRIGSRTIYYLLRSKGLNVSYYKIYNYMKMKRMVQIKDNALIVNGKKAEPPLSTVLLDYHQKNFNDQYAIFCVDMTTKKILSYAESVKITSDVVSGVL | not soluble
8 | MEDVNDLYTMALGEFYAPAPSTSSIKKPAKVPEDQPSTSSAPPTTALFRQLLIGSRSQIERLKKENEELKTKLKHATSSGGVVICPNCTHHFKDRQCPMRPRAMKKMRARNCVELEFGNLEDLEMWLYLNQLETNNDGMPTVMNVKKATNCPEKSLKESGSLLPELVEKKREEKRQQEDQKAVVLEKRKPVTQKVQDHLKRRSKSPIGRGKDQSDKDIISNKKRKLNRQSKEEIDERSKIAKKAPISQRVQFPRMPAPQAPDAVASKVREQKPVDITPHPRPSASRNSESQKPVASKIQEKKTEVRTKSSPTNPIVNSKQPSQKKPADLTPHPKRPPITPETLPSRNSEIQKPAASKIQEKKTEVIARSQKSEASTKIAQKPSPTNPTVNFKQPSQKPADLTPKPITLASKSPITRSSEVSTEPSTKPKRAPIVWDDKPKDSTAKELPKELPKAKSHFEFKVKPIEKKDASPPKTTSTSSASPPNPDPAMKQKYKFVPTSKKQKLTETKNKDQKSTINESPVECQNSGQNEASNPTKLKDQELNKHVVPKNPEAIETPDERQESVQKSNEASATSSTKPSDPVETPSDEVDPQETQWKVYSVKQSRPVLDHIYKFALARQSLKRHWNDKMIVLNGDVPQEKVEESKPLSIAESLKRIGVSVEGIAVLQKQLKASAPEPPVLSTTVDDEDALGEFFPDLAKRKTSEIRPVSAESLWSVTDREEEELKILVREDSVVPPSGDCLMDVEAYEITEDLESQTYEASQSDWKEFCLEDVDDDVDETLRERKLSEMEKSAENLDENMDWIENLEELGNDDEQEEEEEEDQEQEQEQVAPSRSISVPLEMKNDFVLSDEDDPVSPVTSTPRKEDFNDDLSGCLEEDEEDTENLLPQAKDDSFIDELDWNYGTDYEEEEVEEAEVVVEEKDNSGSDHDATLEDGEISENDDGEDEKKEEEPKKPIRERTKFMITEDQLGPKTDEEEDEPPEIHRAPPRKRKINYNRQKGSEDNRHRNYRKRDTRPATYLSLLKRRNS | not soluble
9 | TKAHRDAARRIAAESFVLLKNDNVTLRPGTPAEPLLPFNPKGNIAVIGPLADSRTNMPGTWSVAAVLDRCPSLVEGLKEMTAGKANILYAKGSNLISDASYEERATMFGRSLNRDNRTDEQLLNEALTVANQSDIIIAALGESSEMSGESSSRTDLNIPDVQQNLLKELLKTGKPVVLVLFTGRPLTLTWEQEHVPAILNVWFGGSEAAYAIGDALFGYVNPGGKLTMSFPKNVGQIPLYYAHKNTGRPLAQGKWFEKFRSNYLDVDNEPLYPFGYGLSYTTFSYGDIDLSR | not soluble
10 | MKKINKGKSLSRFQLVSTLSVLGAMGLAGNVHAAEAFAADSPWMTGDWNGKRTELLDKGYDFSLEYVSEMASNLKGGSNDDTTGRYSDQFALGMKVDLQKVLGWQDAEFKLAITERSGRNISNDRIGDPRAGTLSSSQEVWGRGQTWRLTQMWVKQKYFDGALDVKAGRFGPGEDFNSFPCDFQNLSFCGSQVGNYVNTWYNWPISQWALRVKYNITPEVYAQVGVYEQNPSNLETGNGFKLSGSGTKGMILPVELVWTPTVNSLPGEYRVGYYKSTPNADDVYEDVNGQPQAATGAAFKSHDSKHGWWVVAQQQLTSHNGDASRGLSIFANATVHDKETNFVDNYQQIGLTYKGPFNSRPKDDIGVGIARIHVNDDVQDRVRLANQISGINDFDNPGYLPVQSTEYNSEIYYGFHVTNWLTVRPNLQFIKHPGGVDQVDDAIVAGIKIQSKF | not soluble
11 | MLKIADKTFQSRLFTGTGKFSNRHVMAEALAASGSELVTMALKRIDLAQRDDDILAPLLSMQMNLLPNTSGAKNAADAVYAAELAREALATNWLKLEIHPDPKYLMPDPIETLLAAEQLVKQGFIVLPYCHADPVLCKRLEEVGCAAVMPLGSPIGSNQGLASKTFLEIIIDQAKVPVIVDAGIGSPSDAAQAMELGADAVLVNTAIAAAHDPIAMAKAFKLAVEAGRMAYESGLPSRVKMATASSPLTGFLDFVS | not soluble
12 | MSLEYNLTTTEIELVNVTASWDEGIGELFEKIKQENKANGQPNGDAGLFFTNLYVTPVLKNISLYLEKGQMLAVAGSTGSGKSSLLMMILGELVPSEGKIRHSGRISFSPQTSWIMPGTIRDNILFGLTYDEFRYTSVIKACQLEEDLALLPEKDKTPLMEGGVTLSGGQRARIGLARAVYKDADLYLLDSPFTHLDIVTEKEIFERCLCKLLSSKTRIVVTSKLEHLKRADKILLLHNGVCYFYGSFSELQAKRPDFSSLLLGLEAYDNIKAERRSSILTETLRRVSIDESTVFRGEGHHHHHH | soluble
13 | MIMGFWNGVAKAAKAVGEGMIEAGNEHKALKMEYAEKSSEELHEIVKSDGFFKNSTREKSAAYAILKERGEV | not soluble
14 | MQTSPLLTQLMEALRCLPGVGPKSAQRMAFTLLQRDRSGGMRLAQALTRAMSEIGHCADCRTFTEQEVCNICSNPRRQENGQICVVESPADIYAIEQTGQFSGRYFVLMGHLSPLDGIGPDDIGLDRLEQRLAEEKITEVILATNPTVEGEATANYIAELCAQYDVEASRIAHGVPVGGELEMVDGTTLSHSLAGRHKIRF | soluble
15 | MGSDKIHHHHHHMPQLQTNNTALSTQQSAEMKTTRLLKVLKIMFPRENWTSQKLTSEVNVKGSGVYRFEHGTIAHLGQPGGPRTEHLWEMTVDRVWAKALIEAHNQAQESEALVRTQAEVYPKDWYGLRLRSPAEAAIAEALQTKGVLFFVNTGCRLHNHSKQYETREVDFLVFHQGKVRILEVDGITYHQNPLADYKRDRLFDREGIRTSRFSAQECFENPNGVVEEFLGLFKF | not soluble
16 | MGSDKIHHHHHHMRRLFAIGEALIDFIPNVTHSKLKDVEQFSRQVGGAPCNVAATVSKLGGKSEMITQLGNDAFGDIIVETIEQLGVGTQYIKRTNKANTALAFVSLQDDGQRDFSFYRKPSADMLYQPENIDDIQVFQDDILHFCSVDLIESDMKYAHEKMIEKFESVDGTIVFDPNVRLPLWEDKLECQRTINAFIPKAHIVKISDEELLFITGKRNEDEAIQSLFRGRVNVVIYTQGAQGATIYTKDDYRIHHEGYQVQAIDTTGAGDAFIGAIIYCILESRYSECKDLFKEKGKDILAFSNRVAALTTTKHGAIESLPTKEDIKDYN | not soluble
17 | MKFVLAVHGTRGDVEPCAAVGVELRRRGHAVHMAVPPNLIEFVESAGLTGVAYGPDSDEQINTVAAFVRNLTRAQNPLNLARAVKELFVEGWAEMGTTLTTLADGADLVMTGQTYHGVAANVAEYYDIPAAALHHFPMQVNGQIAIPSIPTPATLVRATMKVSWRLYAYVSKDADRAQRRELGLPPAPAPAVRRLAERGAPEIQAYDPVFFPGLAAEWSDRRPFVGPLTMELHSEPNEELESWIAAGTPPIYFGFGSTPVQTPVQTLAMISDVCAQLGERALIYSPAANSTRIRHADHVKRVGLVNYSTILPKCRAVVHHGGAGTTAAGLRAGMPTLILWDVADQPIWAGAVQRLKVGSAKRFTNITRGSLLKELRSILAPECAARAREISTRMTRPTAAVTAAADLLEATARQTPGSTPSSSPGR | not soluble
18 | AHHHHHHGSRVLKSEGVSMLNTELLTTGVKGLDELLGGGVAKGVILQVYGPFATGKTTFAMQVGLLNEGKVAYVDTEGGFSPERLAQMAESRNLDVEKALEKFVIFEPMDLNEQRQVIARLKNIVNEKFSLVVVDSFTAHYRAEGSREYGELSKQLQVLQWIARRKNVAVIVVNQVYYDSNSGILKPIAEHTLGYKTKDILRFERLRVGVRIAVLERHRFRPEGGMVYFKITDKGLEDVKNED | soluble
